In patent US6348573B1, “Compositions and methods for identifying apoptosis signaling pathway inhibitors and activators” (The Regents of the University of Michigan, priority 1998, dated 2002):

What was measured:
293T cells [1] = experiment: Apoptosis assay, CIDE transfection; format: cell-based, human; conditions: 293T cells
Description: Apoptosis Assays, fluorescence staining of nuclear DNA and DNA fragmentation assay: 5×10^5 293T cells were co-transfected with 0.2 μg of pcDNA3-β-gal plus each expression plasmid in triplicate by the calcium phosphate method as reported [N. Inohara et al, “CLARP, a death effector domain-containing protein interacts with caspase-8 and regulates apoptosis,” Proc. Natl. Acad. Sci. USA 94:10717-10722 (1997a)].
MCF7 were cotransfected with vector control or CIDE-A and β-galactosidase-expressing reporter construct by Lipofectamine (Gibco BRL) according to the manufacturer's instructions. In some experiments, 20 μM zVAD-fmk (benzyloxycarbonyl-Val-Ala-Asp-(OMe)-fluoromethylketone), zFA-fmk (benzyloxycarbonyl-Phe-Ala-(OMc)-fluoromethylketone) and zDEVD-fmk (benzyloxycarbonyl-Asp-Glu-Val-Asp-(OMe)-fluoromethylketone) were added into medium at 8 hr after transfection. zFA-fmk, zVAD-fmk and zDEVD-fmk were obtained from Enzyme Systems. At 24 hours after transfection, cells were fixed, stained for β-galactosidase as described [N. Inohara et al., “CLARP, a death effector domain-containing protein interacts with caspase-8 and regulates apoptosis,” Proc. Natl. Acad. Sci. USA 94:10717-10722 (1997a)] and assayed for morphological features of apoptosis. At least 300 hundred blue-staining cells were counted. Statistical significance was determined by one-way ANOVA followed by Student-Neuman-Keuls post-doc comparisons.
(§1) Nuclear staining with acridine-orange was performed as described [N. Inohara et al., “harakiri, a novel regulator of cell death, encodes a protein that activates apoptosis and interacts selectively with survival-promoting proteins Bcl-2 and Bcl-XL.,” EMBO J. 16:1686-1694 (1997b)]. Genomic DNA was extracted and analyzed for DNA fragmentation as described [X. Liu et al., “Apaf-1, a human protein homologous to C. elegans CED-4, participates in cytochrome c-dependent activation of caspase-3,” Cell 90:405-413 (1997)].

SHEP cells = experiment: Apoptosis in SHEP cells; format: cell-based; conditions: data not shown
293T cells [2] = experiment: DNA fragmentation assay; format: cell-based, human; conditions: co-expression
Description: as §1

B1: CIDE-B: cell death-inducing DFF45-like effector B, mouse protein of 219 amino acids (protein, listed as Mus musculus)
chain: MEYLSAFNPNGLLRSVSTVSSELSRRVWNSAPPPQRPFRVCDHKRTVRKGLTAASLQELLDKVLETLLLRGVLTLVLEEDGTAVDSEDFFQLLEDDTCLMVLEQGQSWSPKSGMLSYGLGREKPKHSKDIARITFDVYKQNPRDLFGSLNVKATFYGLYSMSCDFQGVGPKRVLRELLRGTSSQLQGLGHMLLGISSTLRHVVEGADRWQWHGQRHLHS
induction of apoptosis (killing) of 293T cells by expression (293T cells [1]): induced significant killing of 293T cells in a dose dependent manner
induction of apoptosis in SHEP cells (SHEP cells): induced apoptosis

B2: DFF45: 45 kDa subunit of the DNA fragmentation factor (protein, UniProt O00273 1-331, looked up)
DNA fragmentation factor …: MEVTGDAGVPESGEIRTLKPCLLRRNYSREQHGVAASCLEDLRSKACDILAIDKSLTPVTLVLAEDGTIVDDDDYFLCLPSNTKFVALASNEKWAYNNSDGGTAWISQESFDVDETDSGAGLKWKNVARQLKEDLSSIILLSEEDLQMLVDAPCSDLAQELRQSCATVQRLQHTLQQVLDQREEVRQSKQLLQLYLQALEKEGSLLSKQEESKAAFGEEVDAVDTGISRETSSDVALASHILTALREKQAPELSLSSQDLELVTKEDPKALAVALNWDIKKTETVQEACERELALRLQQTQSLHSLRSISASKASPPGDLQNPKRARQDPT
induction of apoptosis (killing) of 293T cells by expression (293T cells [1]): did not induce apoptosis
apoptosis induced by CLARP (293T cells [1]; co-expression): inhibited
apoptosis induced by Fas (293T cells [1]; co-expression): inhibited
apoptosis of the CIDE-A (108-199) mutant (293T cells [1]; co-expression): not inhibited
killing activity of CIDE-A (293T cells [1]; co-expression): inhibited significantly
killing activity of CIDE-B (293T cells [1]; co-expression): inhibited significantly
DNA fragmentation induced by CIDE-A (293T cells [2]): inhibited
